Starred links: 1 amine or outer side, 2 acyl side, 3 side chain; linkers in the order of their positions; H or OH if unused. Positions of bridges follow the written chain, without caps; N, C: chain ends. Non-standard residues stand in square brackets, D forms with d. Primed or numbered codes have the meaning given here. No end group written: not given here. Dab(acetyl)″ = 2-amino-4-(acetylamino)butanoic acid, acetyl CH3 carbon bonded to the S of Hcy (S-CH2-C(=O)-NH-), O=C(C[*:3])NCC[C@H](N[*:1])C(=O)[*:2]; Dab(acetyl) = 2-amino-4-acetylamino-butanoic acid residue (N-γ-acetyl-diaminobutyric acid), CC(=O)NCC[C@H](N[*:1])C(=O)[*:2]; Dap(acetyl) = 2-amino-3-acetylamino-propanoic acid residue, CC(=O)NC[C@H](N[*:1])C(=O)[*:2]; COCH2 = acetyl group that carries the bridge; hCys = N[C@@H](CCS)C(=O)O; Dab = NCC[C@H](N)C(=O)O
Target: T1, human integrin αvβ5 (human, UniProt P06756 31-992; P18084 24-719, limits assumed)
T1 construct: Heterodimer flowed as analyte at 30, 100, 300 and 1,000 nM in HEPES buffer with 5 mM MgCl2
Experiment: SPR, Biacore 3000, peptide immobilised; B = KD more than 50 nM and 100 nM or less
Method: However, only for the cyclic peptides 125, 126, and 127, in which the number of lysine residues having an amino group as the immobilizing functional group was zero, the amount of the sample solution to be supplied to the sensor chip was set to 500 μL instead of 20 μL. Further, 70 μL of the mixed aqueous solution of 0.2 M EDC and 0.04 M NHS was added to another flow channel of the same sensor chip without immobilizing the sample, and then blocking treatment and washing treatment were carried out. Hereinafter, the obtained immobilization-treated sensor chip is referred to as an “immobilization-treated sensor chip A”.
After adding human integrin αvβ5 for 10 minutes at 25° C., which was diluted to 30 nM using a HEPES buffer solution to which magnesium chloride was added to 5 mM, in each flow channel of the immobilization-treated sensor chip A prepared in (1) above, the same HEPES buffer solution (containing 5 mM magnesium chloride) was allowed to flow as a running buffer for 30 minutes, and measurement was carried out with Biacore 3000. Then, a regeneration treatment of removing human integrin αvβ5 was carried out by allowing a 0.5 M EDTA aqueous solution to flow through each flow channel for 10 minutes. Further, the above-described measurement process consisting of adding integrin for 10 minutes, allowing a running buffer to flow for 30 minutes, carrying out measurement with Biacore 3000, and carrying out regeneration treatment with 0.5 M EDTA aqueous solution was carried out in the same manner for 100 nM human integrin αvβ5, 300 nM human integrin αvβ5, and 1,000 nM human integrin αvβ5. Dissociation constant between the cyclic peptide and human integrin αvβ5 was calculated from the difference between the value measured by Biacore 3000 in the flow channel immobilized with the cyclic peptide and the value measured by Biacore 3000 in the flow channel unimmobilized with the cyclic peptide, in a case where each concentration of human integrin αvβ5 was allowed to flow, and the integrin binding property was evaluated according to the following evaluation standards. It is preferable that the evaluation result satisfies the evaluation standard A, B, or C.

T1 sequence (P06756 31-992 limits assumed, chain 1 of 2): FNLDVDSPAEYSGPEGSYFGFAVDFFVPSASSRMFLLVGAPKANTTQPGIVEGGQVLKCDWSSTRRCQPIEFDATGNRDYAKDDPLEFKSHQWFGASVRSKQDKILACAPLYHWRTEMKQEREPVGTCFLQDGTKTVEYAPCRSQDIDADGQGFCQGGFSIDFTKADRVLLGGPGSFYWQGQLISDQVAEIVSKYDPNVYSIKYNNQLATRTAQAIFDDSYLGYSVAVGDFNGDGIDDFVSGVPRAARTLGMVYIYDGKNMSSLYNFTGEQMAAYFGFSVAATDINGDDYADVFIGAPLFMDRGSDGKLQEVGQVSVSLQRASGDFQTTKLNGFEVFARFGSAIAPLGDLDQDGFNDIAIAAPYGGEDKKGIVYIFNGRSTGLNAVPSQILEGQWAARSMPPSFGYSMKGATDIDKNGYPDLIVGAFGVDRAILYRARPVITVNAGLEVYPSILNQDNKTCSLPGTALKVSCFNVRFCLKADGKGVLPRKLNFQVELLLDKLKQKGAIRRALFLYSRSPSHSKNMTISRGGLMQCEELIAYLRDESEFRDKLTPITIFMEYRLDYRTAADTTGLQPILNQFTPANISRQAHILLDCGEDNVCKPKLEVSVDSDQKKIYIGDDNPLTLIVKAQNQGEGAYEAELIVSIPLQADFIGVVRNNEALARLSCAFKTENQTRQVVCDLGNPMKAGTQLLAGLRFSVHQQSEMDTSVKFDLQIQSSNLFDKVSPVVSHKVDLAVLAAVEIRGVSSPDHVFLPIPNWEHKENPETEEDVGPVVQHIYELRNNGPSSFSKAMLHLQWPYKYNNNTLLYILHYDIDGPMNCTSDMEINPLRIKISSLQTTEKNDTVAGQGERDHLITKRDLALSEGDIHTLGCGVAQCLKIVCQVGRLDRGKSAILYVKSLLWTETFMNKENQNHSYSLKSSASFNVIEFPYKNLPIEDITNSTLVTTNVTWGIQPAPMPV
T1 sequence (P18084 24-719 limits assumed, chain 2 of 2): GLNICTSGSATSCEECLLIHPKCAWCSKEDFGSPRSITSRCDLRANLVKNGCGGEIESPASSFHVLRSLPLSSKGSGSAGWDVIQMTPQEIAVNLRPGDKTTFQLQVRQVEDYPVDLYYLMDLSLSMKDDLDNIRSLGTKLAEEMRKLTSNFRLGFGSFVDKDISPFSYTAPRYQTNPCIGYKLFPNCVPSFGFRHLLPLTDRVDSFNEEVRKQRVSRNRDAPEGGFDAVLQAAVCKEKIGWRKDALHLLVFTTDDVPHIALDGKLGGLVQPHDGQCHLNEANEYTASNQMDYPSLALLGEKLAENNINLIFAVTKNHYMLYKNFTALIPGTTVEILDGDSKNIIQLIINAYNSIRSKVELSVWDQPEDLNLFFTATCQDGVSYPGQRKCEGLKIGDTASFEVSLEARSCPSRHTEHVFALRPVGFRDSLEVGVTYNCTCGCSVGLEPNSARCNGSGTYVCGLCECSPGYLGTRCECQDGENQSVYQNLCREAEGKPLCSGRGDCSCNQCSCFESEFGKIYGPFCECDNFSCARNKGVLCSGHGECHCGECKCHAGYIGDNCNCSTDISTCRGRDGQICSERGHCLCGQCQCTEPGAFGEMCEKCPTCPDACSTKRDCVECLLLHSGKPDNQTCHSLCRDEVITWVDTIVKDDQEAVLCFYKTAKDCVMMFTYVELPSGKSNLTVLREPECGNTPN

| Binder | dissociation constant (KD) [nM] | dissociation constant [nM] |
| --- | --- | --- |
| KKK[hCys]AAIPRGDNFR[Dab](COCH2)A (thioether 4-15) [Cyclic peptide 18] | 50 to 100 | – |
| KKKGXIPRGDTFRXA (not fully specified; KKKG-(Pen)-IPRGDTFR(Lys(acetyl))A; thioether bond Pen-Lys(acetyl)) [Cyclic peptide 131] | – | 50 to 100 |
| KKK[Dap(acetyl)]EPRGDNYR[hCys]-NH2 (thioether 4-13) [Cyclic peptide 52] | 50 to 100 | – |
| KKKA[hCys]VTRGDVFT[Dab(acetyl)″]A (thioether 5-14) [Cyclic peptide 113] | – | 50 to 100 |
| KKK[hCys]DPRGDNFR[Dab](COCH2)A (thioether 4-13) [Cyclic peptide 22] | 50 to 100 | – |
| KKK[hCys]IPRGDNYR[Dab](COCH2)A (thioether 4-13) [Cyclic peptide 26] | 50 to 100 | – |
| KKK[hCys]IPRGDSFR[Dab](COCH2)A (thioether 4-13) [Cyclic peptide 25] | 50 to 100 | – |
| KKKGXIPRGDTFRXA (not fully specified; KKKG(Dab(acetyl))IPRGDTFR-(Pen)-A; thioether bond Dab(acetyl)-Pen) [Cyclic peptide 133] | – | 50 to 100 |
| KKKA[Dap(acetyl)]EPRGDNYR[hCys]-NH2 (thioether 5-14) [Cyclic peptide 53] | 50 to 100 | – |
| KKKA[hCys]EPRGDNYR[Dab(acetyl)″]D (thioether 5-14) [Cyclic peptide 42] | 50 to 100 | – |
| KKKA[hCys]EPRGDNYR[Dab(acetyl)″]G (thioether 5-14) [Cyclic peptide 40] | 50 to 100 | – |
| KKKA[hCys]EPRGDNYR[Dab(acetyl)″]E (thioether 5-14) [Cyclic peptide 43] | 50 to 100 | – |
| KKKA[hCys]EPRGDNYE[Dab](COCH2)D (thioether 5-14) [Cyclic peptide 36] | 50 to 100 | – |
| KKKA[hCys]VPRGDNYR[Dab](COCH2)D (thioether 5-14) [Cyclic peptide 29] | 50 to 100 | – |
| KKKD[hCys]EPRGDNYR[Dab](COCH2)D (thioether 5-14) [Cyclic peptide 38] | 50 to 100 | – |
| KKKA[hCys]EPRGDNYR[Dab(acetyl)″]A (thioether 5-14) [Cyclic peptide 41] | 50 to 100 | – |
| KKKG[hCys]EPRGDNYR[Dab](COCH2)D (thioether 5-14) [Cyclic peptide 37] | 50 to 100 | – |
| KKK[hCys]IPRGDVF[Dab(acetyl)″] (thioether 4-12) [Cyclic peptide 65] | – | 50 to 100 |

| Binder | dissociation constant (KD) [nM] | dissociation constant [nM] |
| --- | --- | --- |
| KKKGXIPRGDTFRCA (not fully specified; KKKG(Dab(acetyl))IPRGDTFR(C)A; thioether bond Dab(acetyl)-Cys) [Cyclic peptide 138] | – | 50 to 100 |
| KKK[Dap(acetyl)]EPRGDNYR[hCys] (thioether 4-13) [Cyclic peptide 46] | 50 to 100 | – |
| KKKGXIPRGDTFRXA (not fully specified; KKKG-(Pen)-IPRGDTFR(Dab(acetyl))A; thioether bond Pen-Dab(acetyl)) [Cyclic peptide 129] | – | 50 to 100 |
| KKKA[Dap(acetyl)]EPRGDNYR[hCys] (thioether 5-14) [Cyclic peptide 47] | 50 to 100 | – |
| KKKG[hCys]AIPRGDNFRA[Dab](COCH2)A (thioether 5-16) [Cyclic peptide 20] | 50 to 100 | – |
| KKK[hCys]EPRGDNYR[Dab(acetyl)″] (thioether 4-13) [Cyclic peptide 44] | 50 to 100 | – |
| KKK[hCys]AIPRGDNFRA[Dab](COCH2)A (thioether 4-15) [Cyclic peptide 17] | 50 to 100 | – |
| KKKXIPRGDNFRX (not fully specified; KKK(Dap(acetyl))IPRGDNFR-(Hcy); thioether bond Dap(acetyl)-Hcy) [Cyclic peptide 12] | 50 to 100 | – |
| KKKA[hCys]EPRGDNYR[Dab(acetyl)″] (thioether 5-14) [Cyclic peptide 45] | 50 to 100 | – |
| KKKAXIPRGDTYRXA (not fully specified; KKKA-(Hcy)-IPRGDTYR(Dab(acetyl))A; thioether bond Hcy-Dab(acetyl)) [Cyclic peptide 81] | – | 50 to 100 |
| KKKAXIPRGDTFTXA (not fully specified; KKKA-(Hcy)-IPRGDTFT(Dab(acetyl))A; thioether bond Hcy-Dab(acetyl)) [Cyclic peptide 82] | – | 50 to 100 |
| KKKAXIPRGDSFAXA (not fully specified; KKKA(Dab(acetyl))IPRGDSFA-(Hcy)-A; thioether bond Dab(acetyl)-Hcy) [Cyclic peptide 124] | – | 50 to 100 |
| KKKAXIPRGDSFAXA (not fully specified; KKKA(Dab(acetyl))IPRGDSFA-(Pen)-A; thioether bond Dab(acetyl)-Pen) [Cyclic peptide 137] | – | 50 to 100 |
| KKK[hCys]AIPRGDNFR[Dab(acetyl)]A (thioether 4-14) [Cyclic peptide 15] | 50 to 100 | – |
| KKK[hCys]EPRGDNYR[Dab(acetyl)″]-NH2 (thioether 4-13; N-terminus assumed; SMILES N=C(N)NCCC[C@@H]1NC(=O)[C@H](Cc2ccc(O)cc2)NC(=O)[C@H](CC(N)=O)NC(=O)[C@H](CC(=O)O)NC(=O)CNC(=O)[C@H](CCCNC(=N)N)NC(=O)[C@@H]2CCCN2C(=O)[C@H](CCC(=O)O)NC(=O)[C@@H](NC(=O)[C@H](CCCCN)NC(=O)[C@H](CCCCN)NC(=O)[C@@H](N)CCCCN)CCSCC(=O)NCC[C@@H](C(N)=O)NC1=O) [Cyclic peptide 49] | 50 to 100 | – |
| KKKGXIPRGDTFRXA (not fully specified; KKKG(Lys(acetyl))IPRGDTFR-(Pen)-A; thioether bond Lys(acetyl)-Pen) [Cyclic peptide 135] | – | 50 to 100 |
| KKK[hCys]IPRGDNFRA[Dab](COCH2)A (thioether 4-14) [Cyclic peptide 16] | 50 to 100 | – |
| KKK[hCys]IPRGDNF[Dab(acetyl)″]A (thioether 4-12) [Cyclic peptide 10] | 50 to 100 | – |

Reference: US20220089647A1 (FUJIFILM, published 2022)
